For test [1], the target named is recombinant human PD-L1 (Sino Biological Inc., catalog number 100 84-H08H) (human, UniProt Q9NZQ7 19-239). Kind of test: ELISA; Fig. 8A. Background: ELISA stands for enzyme-linked immunosorbent assay.
In test [2] the target is T1, human PD-L1-Fc (ACROBiosystems, catalog number PD1-H5258) (human, UniProt Q9NZQ7 19-238). Kind of test: competition ELISA; blocking PD-L1/PD-1.
Test [3] addresses T1, human PD-L1-Fc (ACROBiosystems, catalog …). As to the kind of experiment: competition ELISA; blocking PD-L1/CD80.
In test [4] the target is 4-1BB on GS-H2/4-1BB cells (purchased from GenScript) (UniProt Q07011 24-255). As to the kind of experiment: FACS binding; Fig. 8C, GS-H2/4-1BB cells. Background: Flow cytometry measures light scatter and fluorescence of single cells or particles in a stream.
4-1BB on GS-H2/4-1BB cells (purchased from GenScript), sequence (Q07011 24-255): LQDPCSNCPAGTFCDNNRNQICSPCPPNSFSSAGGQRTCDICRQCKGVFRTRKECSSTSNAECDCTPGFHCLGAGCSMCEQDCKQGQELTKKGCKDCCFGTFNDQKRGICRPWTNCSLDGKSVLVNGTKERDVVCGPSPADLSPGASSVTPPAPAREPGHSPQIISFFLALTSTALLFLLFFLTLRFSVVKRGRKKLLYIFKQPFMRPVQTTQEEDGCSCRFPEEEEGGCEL
Test [5] concerns the target recombinant human 4-1BB (Sino Biological Inc., catalog number 10041-H08H) (human, UniProt Q07011 24-186). As to the kind of experiment: ELISA; Fig. 8B.

T1 sequence (Q9NZQ7 19-238): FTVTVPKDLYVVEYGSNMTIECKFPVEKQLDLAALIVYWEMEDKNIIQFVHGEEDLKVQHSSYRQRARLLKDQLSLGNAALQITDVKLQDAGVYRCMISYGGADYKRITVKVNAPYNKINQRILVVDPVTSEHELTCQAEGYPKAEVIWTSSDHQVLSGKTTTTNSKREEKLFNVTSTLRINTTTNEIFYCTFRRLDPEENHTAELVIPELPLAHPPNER
recombinant human PD-L1 (Sino Biological Inc., catalog number 100 84-H08H), sequence (Q9NZQ7 19-239): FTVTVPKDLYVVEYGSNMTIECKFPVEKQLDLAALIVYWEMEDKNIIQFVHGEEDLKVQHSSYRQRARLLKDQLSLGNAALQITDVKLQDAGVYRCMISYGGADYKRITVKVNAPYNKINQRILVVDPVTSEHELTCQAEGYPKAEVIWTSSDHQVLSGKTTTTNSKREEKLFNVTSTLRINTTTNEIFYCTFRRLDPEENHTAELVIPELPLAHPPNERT
recombinant human 4-1BB (Sino Biological Inc., catalog number 10041-H08H), sequence (Q07011 24-186): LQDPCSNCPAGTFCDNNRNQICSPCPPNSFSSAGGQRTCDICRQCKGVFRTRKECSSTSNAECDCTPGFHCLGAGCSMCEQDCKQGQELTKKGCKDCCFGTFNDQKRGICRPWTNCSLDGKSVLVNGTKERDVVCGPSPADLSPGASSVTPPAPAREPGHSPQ

B1: Anti-PD-L1 mAb (antibody, V domains shown)
VH: EVQLVQSGAEVKKPGSSVKVSCKASGFNIEDTYIHWVRQAPGQGLEWMGRIDPANANTKYDPKFQGRVTITADTSTNTAYMELSSLRSEDTAVYYCGRGLGAWFAYWGQGTLVTVSS
VL: DIQMTQSPSSLSASVGDRVTITCKASQDVHTAVAWIQQKPGKSPKLLIYSASNRYTGVPSRFSGSGSGTDFTFTISSLQPEDIATYYCQQHYITPLTFGQGTKLEIK
By EC50 is commonly meant the midpoint of the concentration-response curve. Take B1: the concentration giving a half-maximal response (EC50) in test [1] is 102 pM; in test [2], 884 pM; in test [3] it was 656 pM.

B2: Anti-4-1BB mAb (antibody, V domains shown)
VH: QVQLVQSGAEVKKPGSSVKVSCKASGYTFTSYWINWVRQAPGQGLEWMGNIYPSDSYTNYNQKFKDRVTITADKSTSTAYMELSSLRSEDTAVYYCARLYYGSSPFDYWGQGTTVTVSS
VL: DIQMTQSPSSLSASVGDRVTITCRASQDISNYLNWYQQKPGKVPKLLIYHTSRLHSGVPSRFSGSGSGTDFTLTISSLQPEDVATYYCQQGHTLPRTFGGGTKVEIK
In the case of B2, the results for the EC50 in test [4] and in test [5] were 1280 pM and 45 pM, respectively.

B3: anti-PD-L1/anti-4-1BB heterodimeric antibody BH3120h (bispecific antibody)
heavy 1: not shown
light 1: DIQMTQSPSSLSASVGDRVTITCKASQDVHTAVAWIQQKPGKSPKLLIYSASNRYTGVPSRFSGSGSGTDFTFTISSLQPEDIATYYCQQHYITPLTFGQGTKLEIKRTVAAPSVFIFPPSDEQLKSGTASVVCLLNNFYPREAKVQWKVDNALQSGNSQESVTEQDSKDSTYSLSSTLTLSKADYEKHKVYACEVTHQGLSSPVTKSFNRGEC
heavy 2: QVQLVQSGAEVKKPGSSVKVSCKASGYTFTSYWINWVRQAPGQGLEWMGNIYPSDSYTNYNQKFKDRVTITADKSTSTAYMELSSLRSEDTAVYYCARLYYGSSPFDYWGQGTTVTVSSASTKGPSVFPLAPSSKSTSGGTAALGCLVKDYFPEPVTVSWNSGALTSGVHTFPAVLQSSGLYSLSSVVTVPSSSLGTQTYICNVNHKPSNTKVDKKVEPKSCDKTHTCPPCPAPELLGGPSVFLFPPKPKDTLMISRTPEVTCVVVDVSHEDPEVKFNWYVDGVEVHNAKTKPREEQYASTYRVVSVLTVLHQDWLNGKEYKCKVSNKALPAPIEKTISKAKGQPREPQVYTEPPSRDELTKNQVSLTCLVKGFYPSDIAVEWESNGQPENNYKTTPPVLDSDGSFFLLSVLTVDKSRWQQGNVFSCSVMHEALHNHYTQKSLSLSPGK
light 2: not shown
In the case of B3, the EC50 in test [1] amounted to 345 pM; in test [4], 396 pM; in test [2] it was 4860 pM; in test [5], 4020 pM; in test [3] it was 1720 pM.

The values are drawn from patent publication US20240034801A1 (published 2024).
